Drawing on patent US20210340217A1, “NOVEL PEPTIDES AND COMBINATION OF PEPTIDES FOR USE IN IMMUNOTHERAPY AGAINST OVARIAN CANCER AND OTHER CANCERS” (Immatics Biotechnologies GmbH, priority 2017, published 2021), this text covers Peptide exchange for 66 substances.

The experiment has as its target HLA-B*07:02 (Homo sapiens, UniProt P01889). Description: MHC binding assay (UV-ligand exchange, beta2m ELISA). As to conditions: peptide exchange yield. The source says:
Candidate peptides for T cell based therapies according to the present invention were further tested for their MHC binding capacity (affinity). The individual peptide-MHC complexes were produced by UV-ligand exchange, where a UV-sensitive peptide is cleaved upon UV-irradiation, and exchanged with the peptide of interest as analyzed. Only peptide candidates that can effectively bind and stabilize the peptide-receptive MHC molecules prevent dissociation of the MHC complexes. To determine the yield of the exchange reaction, an ELISA was performed based on the detection of the light chain (β2m) of stabilized MHC complexes. The assay was performed as generally described in Rodenko et al. (Rodenko et al., 2006).
96 well MAXISorp plates (NUNC) were coated over night with 2 ug/ml streptavidin in PBS at room temperature, washed 4× and blocked for 1 h at 37° C. in 2% BSA containing blocking buffer. Refolded HLA-A*02:01/MLA-001 monomers served as standards, covering the range of 15-500 ng/ml. Peptide-MHC monomers of the UV-exchange reaction were diluted 100-fold in blocking buffer. Samples were incubated for 1 h at 37° C., washed four times, incubated with 2 ug/ml HRP conjugated anti-β2m for 1h at 37° C., washed again and detected with TMB solution that is stopped with […]. Absorption was measured at 450 nm. Candidate peptides that show a high exchange yield (preferably higher than 50%, most preferred higher than 75%) are generally preferred for a generation and production of antibodies or fragments thereof, and/or T cell receptors or fragments thereof, as they show sufficient avidity to the MHC molecules and prevent dissociation of the MHC complexes.
With “376 (RPRSPAGQVA; listed as Homo sapiens) [compound 376]”, the Peptide exchange result was ““+++” (>50 = +++)”.

Take “293 (VPDSGATATAY; listed as Homo sapiens) [compound 293]”: the Peptide exchange result was ““++” (>20% = ++)”.

Consider “325 (GPRNAQRVL; listed as Homo sapiens) [compound 325]”, for which the Peptide exchange entry is recorded as ““+++” (>50 = +++)”.

Consider “37 (RPLFQKSSM; listed as Homo sapiens) [compound 37]”, for which the Peptide exchange result is ““+++” (>50 = +++)”.

Turning to “384 (YPGLRGSPM; listed as Homo sapiens) [compound 384]”, the Peptide exchange entry is on record as ““++++” (>75% = ++++)”.

On to “146 (IPRPEVQAL; listed as Homo sapiens) [compound 146]”, for which the Peptide exchange entry was ““+++” (>50 = +++)”.

With “348 (MPNSAIPFSM; listed as Homo sapiens) [compound 348]”, the Peptide exchange entry is reported as ““+++” (>50 = +++)”.

Take “343 (LPSVSGVKTTF; listed as Homo sapiens) [compound 343]”: the Peptide exchange result was ““++” (>20% = ++)”.

Take “323 (RPMPNLRSV; listed as Homo sapiens) [compound 323]”: the Peptide exchange result is recorded as ““+++” (>50 = +++)”.

Regarding “38 (SPHPVTALLTL; listed as Homo sapiens) [compound 38]”, the Peptide exchange result is on record as ““+++” (>50 = +++)”.

Take “34 (LPRGPLASLL; listed as Homo sapiens) [compound 34]”: the Peptide exchange result is reported as ““+++” (>50 = +++)”.

As for “373 (RPRALRDLRIL; listed as Homo sapiens) [compound 373]”, the Peptide exchange entry is ““+++” (>50 = +++)”.

Regarding “345 (LPTSESLVSF; listed as Homo sapiens) [compound 345]”, the Peptide exchange entry is ““++” (>20% = ++)”.

Take “295 (YPLRGSSIFGL; listed as Homo sapiens) [compound 295]”: the Peptide exchange result is listed as ““+++” (>50 = +++)”.

As for “380 (IPTYGRTF; listed as Homo sapiens) [compound 380]”, the Peptide exchange entry is ““+++” (>50 = +++)”.

As to “356 (SPNEFYFTV; listed as Homo sapiens) [compound 356]”, the Peptide exchange entry is given as ““+++” (>50 = +++)”.

For the substance “315 (SPRENFPDTL; listed as Homo sapiens) [compound 315]”, the Peptide exchange entry is listed as ““+++” (>50 = +++)”.

As for “321 (SPMDTFLLI; listed as Homo sapiens) [compound 321]”, the Peptide exchange result was ““++” (>20% = ++)”.

In the case of “391 (APSTPRITTF; listed as Homo sapiens) [compound 391]”, the Peptide exchange result was ““+++” (>50 = +++)”.

With “132 (IPGPAQSTI; listed as Homo sapiens) [compound 132]”, the Peptide exchange result is recorded as ““++” (>20% = ++)”.

For “334 (FPYSEVTTL; listed as Homo sapiens) [compound 334]”, the Peptide exchange entry is ““+++” (>50 = +++)”.

Take “308 (YPEGAAYEF; listed as Homo sapiens) [compound 308]”: the Peptide exchange result is reported as ““++” (>20% = ++)”.

“359 (SPSTIKLTM; listed as Homo sapiens) [compound 359]”: the Peptide exchange result is on record as ““+++” (>50 = +++)”.

As to “301 (SPRRSPRISF; listed as Homo sapiens) [compound 301]”, the Peptide exchange result was ““++” (>20% = ++)”.

Take “307 (LPYGPGSEAAAF; listed as Homo sapiens) [compound 307]”: the Peptide exchange result is ““+++” (>50 = +++)”.

Consider “317 (FPFQPGSV; listed as Homo sapiens) [compound 317]”, for which the Peptide exchange result is listed as ““+++” (>50 = +++)”.

Take “128 (YPRTITPGM; listed as Homo sapiens) [compound 128]”: the Peptide exchange entry is ““+++” (>50 = +++)”.

Turning to “148 (KPYGGSGPL; listed as Homo sapiens) [compound 148]”, the Peptide exchange entry was ““+++” (>50 = +++)”.

With “125 (VPVYILLDEM; listed as Homo sapiens) [compound 125]”, the Peptide exchange entry was ““++” (>20% = ++)”.

For the substance “127 (APRAGSQVV; listed as Homo sapiens) [compound 127]”, the Peptide exchange entry is ““+++” (>50 = +++)”.

With “297 (TVREASGLL; listed as Homo sapiens) [compound 297]”, the Peptide exchange result is on record as ““+++” (>50 = +++)”.

As for “327 (SPLPVTSLI; listed as Homo sapiens) [compound 327]”, the Peptide exchange entry is listed as ““+++” (>50 = +++)”.

As for “33 (SPTFHLTL; listed as Homo sapiens) [compound 33]”, the Peptide exchange entry is ““+++” (>50 = +++)”.

As for “294 (YPLRGSSIF; listed as Homo sapiens) [compound 294]”, the Peptide exchange result is ““+++” (>50 = +++)”.

Consider “118 (SPASRSISL; listed as Homo sapiens) [compound 118]”, for which the Peptide exchange result is ““+++” (>50 = +++)”.

“35 (FPDNQRPAL; listed as Homo sapiens) [compound 35]”: the Peptide exchange entry was ““+++” (>50 = +++)”.

For the substance “36 (APAAWLRSA; listed as Homo sapiens) [compound 36]”, the Peptide exchange entry is given as ““++” (>20% = ++)”.

“319 (SPAEPSVYATL; listed as Homo sapiens) [compound 319]”: the Peptide exchange entry is ““++++” (>75% = ++++)”.

With “123 (KPSESIYSAL; listed as Homo sapiens) [compound 123]”, the Peptide exchange result is given as ““+++” (>50 = +++)”.

Take “316 (EPKTATVL; listed as Homo sapiens) [compound 316]”: the Peptide exchange result was ““++” (>20% = ++)”.

With “371 (LYVDGFTHW; listed as Homo sapiens) [compound 371]”, the Peptide exchange entry is ““++” (>20% = ++)”.

For the substance “344 (LPTQTTSSL; listed as Homo sapiens) [compound 344]”, the Peptide exchange entry is recorded as ““+++” (>50 = +++)”.

In the case of “149 (GPREALSRL; listed as Homo sapiens) [compound 149]”, the Peptide exchange result is recorded as ““+++” (>50 = +++)”.

On to “352 (SPAETSTNM; listed as Homo sapiens) [compound 352]”, for which the Peptide exchange entry is ““+++” (>50 = +++)”.

As for “382 (SPMHDRWTF; listed as Homo sapiens) [compound 382]”, the Peptide exchange result is given as ““+++” (>50 = +++)”.

With “299 (HPGSSALHY; listed as Homo sapiens) [compound 299]”, the Peptide exchange entry is given as ““++” (>20% = ++)”.

On to “364 (TPLATTQRF; listed as Homo sapiens) [compound 364]”, for which the Peptide exchange entry was ““++” (>20% = ++)”.

Consider “370 (PGGTRQSL; listed as Homo sapiens) [compound 370]”, for which the Peptide exchange entry is reported as ““+” (>10% = +)”.

Take “349 (MPSLSEAMTSF; listed as Homo sapiens) [compound 349]”: the Peptide exchange result is recorded as ““+++” (>50 = +++)”.

Take “331 (FPHPEMTTSM; listed as Homo sapiens) [compound 331]”: the Peptide exchange result is recorded as ““+++” (>50 = +++)”.

Consider “143 (SPAMTSTSF; listed as Homo sapiens) [compound 143]”, for which the Peptide exchange result was ““++” (>20% = ++)”.

As for “129 (APRPASSL; listed as Homo sapiens) [compound 129]”, the Peptide exchange result was ““+++” (>50 = +++)”.

For “119 (APLPRPGAVL; listed as Homo sapiens) [compound 119]”, the Peptide exchange result is recorded as ““+++” (>50 = +++)”.

On to “379 (GPFPLVYVL; listed as Homo sapiens) [compound 379]”, for which the Peptide exchange entry is recorded as ““+++” (>50 = +++)”.

As to “304 (LPRPGAVL; listed as Homo sapiens) [compound 304]”, the Peptide exchange result is ““+++” (>50 = +++)”.

In the case of “313 (KVKSDRSVF; listed as Homo sapiens) [compound 313]”, the Peptide exchange entry is ““+” (>10% = +)”.

Consider “388 (SPAPLKLSRTPA; listed as Homo sapiens) [compound 388]”, for which the Peptide exchange result is ““++” (>20% = ++)”.

Take “337 (HPVETSSAL; listed as Homo sapiens) [compound 337]”: the Peptide exchange result is recorded as ““+++” (>50 = +++)”.

Turning to “318 (FPNRLNLEA; listed as Homo sapiens) [compound 318]”, the Peptide exchange result is reported as ““+++” (>50 = +++)”.

As for “136 (SPFSAEEANSL; listed as Homo sapiens) [compound 136]”, the Peptide exchange entry was ““+++” (>50 = +++)”.

For the substance “39 (RPAPFEVVF; listed as Homo sapiens) [compound 39]”, the Peptide exchange result was ““+++” (>50 = +++)”.

“361 (SPTHVTQSL; listed as Homo sapiens) [compound 361]”: the Peptide exchange entry is ““+++” (>50 = +++)”.

Regarding “40 (KPGTSYRVTL; listed as Homo sapiens) [compound 40]”, the Peptide exchange result is on record as ““+++” (>50 = +++)”.

“144 (SPSPVSSTL; listed as Homo sapiens) [compound 144]”: the Peptide exchange result is recorded as ““+++” (>50 = +++)”.

Consider “330 (FPFVTGSTEM; listed as Homo sapiens) [compound 330]”, for which the Peptide exchange entry was ““++” (>20% = ++)”.

With “374 (NPIGDTGVKF; listed as Homo sapiens) [compound 374]”, the Peptide exchange result is on record as ““+++” (>50 = +++)”.
